Measurements as given in patent US20090075898A1 (YEDA RESEARCH AND DEVELOPMENT CO LTD AT THE WEIZMANN …, published 2009).
Ends that are not written are not given here. * marks the point of attachment. Biotin = O=C1N[C@H]2[C@H](CS[C@H]2CCCCC(=O)*)N1

T1: β-chain of the high affinity IgE receptor (FcεRI) on mouse bone marrow derived mast cells (mouse, UniProt P20490 1-235)
T1 sequence (looked up): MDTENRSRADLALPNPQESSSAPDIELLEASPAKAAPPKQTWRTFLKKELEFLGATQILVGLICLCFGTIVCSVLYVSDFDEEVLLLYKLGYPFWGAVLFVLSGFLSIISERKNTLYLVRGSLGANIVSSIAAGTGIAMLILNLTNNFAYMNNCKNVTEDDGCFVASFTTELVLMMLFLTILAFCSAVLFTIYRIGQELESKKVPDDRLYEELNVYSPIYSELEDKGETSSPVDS

T2: multisubunit FcεRI receptor complex on rat RBL-2H3 cells and rat peritoneal mast cells (rat, UniProt P12371 24-245; P13386 1-243; P20411 19-86)
T2 sequence (looked up) 1: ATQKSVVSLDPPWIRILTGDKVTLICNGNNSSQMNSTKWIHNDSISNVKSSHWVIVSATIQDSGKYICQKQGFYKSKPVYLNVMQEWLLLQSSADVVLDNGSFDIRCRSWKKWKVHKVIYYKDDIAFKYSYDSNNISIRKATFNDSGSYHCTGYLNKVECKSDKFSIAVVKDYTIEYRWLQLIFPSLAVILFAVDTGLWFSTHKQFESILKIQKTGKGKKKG
T2 sequence (looked up) 2: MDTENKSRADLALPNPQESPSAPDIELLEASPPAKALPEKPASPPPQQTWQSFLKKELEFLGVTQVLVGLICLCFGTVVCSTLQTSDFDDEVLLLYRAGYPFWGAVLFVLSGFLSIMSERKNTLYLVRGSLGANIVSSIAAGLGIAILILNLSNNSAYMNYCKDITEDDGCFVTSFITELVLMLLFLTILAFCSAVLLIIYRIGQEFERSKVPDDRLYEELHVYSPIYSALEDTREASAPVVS
T2 sequence (looked up) 3: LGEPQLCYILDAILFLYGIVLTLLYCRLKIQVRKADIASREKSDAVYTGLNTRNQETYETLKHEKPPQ

T3: C5a (UniProt P01031 678-751)
T3 construct: domain: C5a; Control analyte in SPR
T3 sequence (looked up): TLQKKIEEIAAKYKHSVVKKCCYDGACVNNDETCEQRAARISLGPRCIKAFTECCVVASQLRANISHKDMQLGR

B1: human complement component C3a (ligand)
chain: not shown
B2: biotinylated peptide of the 1st extracellular loop of the human FcεRI β chain (peptide)
peptide: Biotin-SVLDISHIEGDIFSSFKAGY
notes: also called first extracellular loop of human FcεRI β-chain
B3: biotinylated peptide of the 2nd extracellular loop of the human FcεRI β chain (peptide)
peptide: Biotin-KSLAYIHIHSCQKFFETKCFMAS
modifications: cysteine pairing not given here
notes: also called second extracellular loop of human FcεRI β-chain

Assays:
[1] = target: T1, β-chain of the high affinity IgE …; assay: cell-based or functional assay
[2] = target: T2, multisubunit FcεRI receptor complex on …; assay: cell-based or functional assay
C5a = target: T3, C5a; assay: SPR (BIACORE 2000), peptide on streptavidin chip, C5a as analyte
[3] = target: B1; assay: SPR (BIACORE 2000), biotinylated peptide on streptavidin chip, C3a as analyte; Kd = koff/kon from kobs plots; first extracellular loop of the human protein
[4] = target: B1; assay: SPR (BIACORE 2000), peptide on streptavidin chip, C3a as analyte

Row | Binder | Inhibitory effect (IC50, µM) on the IgE-mediated degranulation of BMMC [1] | Inhibitory effect (IC50, µM) on the IgE-mediated degranulation of RBL-2H3 [2] | binding result (C5a) | Kd [3] | binding result [4]
1 | B1 | 0.2 µM | 2.4 µM |  |  | 
2 | B2 |  |  | no binding | 250 nM | 
3 | B3 |  |  | no binding |  | no binding
